This note sets out measurements from patent publication US20260008815A1, “CYCLIC PEPTIDE OR SALT THEREOF, AND USES THEREOF” (FUJIFILM Corporation, priority 2023, published 2026).

The labels stand for the following.
B1: cyclic peptide SEQ ID NO: 243 (peptide)
peptide: YCEENYLDPWQYQYFIYFK(COCH2)Y
modifications: thioether 2-19 (inferred)
B2: cyclic peptide SEQ ID NO: 249 (peptide)
peptide: YCEENYLDPRQYQYFIYFK(COCH2)Y
modifications: thioether 2-19 (inferred)
B3: cyclic peptide SEQ ID NO: 273 (peptide)
peptide: YCEENYLDPEQYQNFIYFK(COCH2)Y
modifications: thioether 2-19 (inferred)
B4: cyclic peptide SEQ ID NO: 259 (peptide)
peptide: YCEENYLDPEQYIYFIYFK(COCH2)Y
modifications: thioether 2-19 (inferred)
B5: cyclic peptide SEQ ID NO: 278 (peptide)
peptide: YCEENYLDPEQYQYFLYFK(COCH2)Y
modifications: thioether 2-19 (inferred)
B6: cyclic peptide SEQ ID NO: 258 (peptide)
peptide: YCEENYLDPEQYLYFIYFK(COCH2)Y
modifications: thioether 2-19 (inferred)
B7: cyclic peptide SEQ ID NO: 247 (peptide)
peptide: YCEENYLDPTQYQYFIYFK(COCH2)Y
modifications: thioether 2-19 (inferred)
B8: cyclic peptide SEQ ID NO: 284 (peptide)
peptide: YCEENYLDPEQYQYFQYFK(COCH2)Y
modifications: thioether 2-19 (inferred)
B9: cyclic peptide SEQ ID NO: 253 (peptide)
peptide: YCEENYLDPEQIQYFIYFK(COCH2)Y
modifications: thioether 2-19 (inferred)
B10: cyclic peptide SEQ ID NO: 270 (peptide)
peptide: YCEENYLDPEQYHYFIYFK(COCH2)Y
modifications: thioether 2-19 (inferred)
B11: cyclic peptide SEQ ID NO: 264 (peptide)
peptide: YCEENYLDPEQYNYFIYFK(COCH2)Y
modifications: thioether 2-19 (inferred)
B12: cyclic peptide SEQ ID NO: 275 (peptide)
peptide: YCEENYLDPEQYQYLIYFK(COCH2)Y
modifications: thioether 2-19 (inferred)
B13: cyclic peptide SEQ ID NO: 262 (peptide)
peptide: YCEENYLDPEQYYYFIYFK(COCH2)Y
modifications: thioether 2-19 (inferred)
B14: cyclic peptide SEQ ID NO: 277 (peptide)
peptide: YCEENYLDPEQYQYFGYFK(COCH2)Y
modifications: thioether 2-19 (inferred)
B15: cyclic peptide SEQ ID NO: 261 (peptide)
peptide: YCEENYLDPEQYFYFIYFK(COCH2)Y
modifications: thioether 2-19 (inferred)
B16: cyclic peptide SEQ ID NO: 269 (peptide)
peptide: YCEENYLDPEQYRYFIYFK(COCH2)Y
modifications: thioether 2-19 (inferred)
B17: cyclic peptide SEQ ID NO: 281 (peptide)
peptide: YCEENYLDPEQYQYFYYFK(COCH2)Y
modifications: thioether 2-19 (inferred)
B18: cyclic peptide SEQ ID NO: 271 (peptide)
peptide: YCEENYLDPEQYQIFIYFK(COCH2)Y
modifications: thioether 2-19 (inferred)
B19: cyclic peptide SEQ ID NO: 248 (peptide)
peptide: YCEENYLDPDQYQYFIYFK(COCH2)Y
modifications: thioether 2-19 (inferred)
B20: cyclic peptide SEQ ID NO: 267 (peptide)
peptide: YCEENYLDPEQYDYFIYFK(COCH2)Y
modifications: thioether 2-19 (inferred)
B21: cyclic peptide SEQ ID NO: 255 (peptide)
peptide: YCEENYLDPEQWQYFIYFK(COCH2)Y
modifications: thioether 2-19 (inferred)
B22: cyclic peptide SEQ ID NO: 283 (peptide)
peptide: YCEENYLDPEQYQYFNYFK(COCH2)Y
modifications: thioether 2-19 (inferred)
B23: cyclic peptide SEQ ID NO: 246 (peptide)
peptide: YCEENYLDPSQYQYFIYFK(COCH2)Y
modifications: thioether 2-19 (inferred)
B24: cyclic peptide SEQ ID NO: 257 (peptide)
peptide: YCEENYLDPEQYGYFIYFK(COCH2)Y
modifications: thioether 2-19 (inferred)
B25: cyclic peptide SEQ ID NO: 263 (peptide)
peptide: YCEENYLDPEQYWYFIYFK(COCH2)Y
modifications: thioether 2-19 (inferred)
B26: cyclic peptide SEQ ID NO: 250 (peptide)
peptide: YCEENYLDPHQYQYFIYFK(COCH2)Y
modifications: thioether 2-19 (inferred)
B27: cyclic peptide SEQ ID NO: 274 (peptide)
peptide: YCEENYLDPEQYQHFIYFK(COCH2)Y
modifications: thioether 2-19 (inferred)
B28: cyclic peptide SEQ ID NO: 265 (peptide)
peptide: YCEENYLDPEQYSYFIYFK(COCH2)Y
modifications: thioether 2-19 (inferred)
B29: cyclic peptide SEQ ID NO: 266 (peptide)
peptide: YCEENYLDPEQYTYFIYFK(COCH2)Y
modifications: thioether 2-19 (inferred)
B30: cyclic peptide SEQ ID NO: 279 (peptide)
peptide: YCEENYLDPEQYQYFVYFK(COCH2)Y
modifications: thioether 2-19 (inferred)
B31: cyclic peptide SEQ ID NO: 254 (peptide)
peptide: YCEENYLDPEQFQYFIYFK(COCH2)Y
modifications: thioether 2-19 (inferred)
B32: cyclic peptide SEQ ID NO: 272 (peptide)
peptide: YCEENYLDPEQYQFFIYFK(COCH2)Y
modifications: thioether 2-19 (inferred)
B33: cyclic peptide SEQ ID NO: 282 (peptide)
peptide: YCEENYLDPEQYQYFWYFK(COCH2)Y
modifications: thioether 2-19 (inferred)
B34: cyclic peptide SEQ ID NO: 245 (peptide)
peptide: YCEENYLDPQQYQYFIYFK(COCH2)Y
modifications: thioether 2-19 (inferred)
B35: cyclic peptide SEQ ID NO: 256 (peptide)
peptide: YCEENYLDPEQHQYFIYFK(COCH2)Y
modifications: thioether 2-19 (inferred)
B36: cyclic peptide SEQ ID NO: 280 (peptide)
peptide: YCEENYLDPEQYQYFFYFK(COCH2)Y
modifications: thioether 2-19 (inferred)
B37: cyclic peptide SEQ ID NO: 276 (peptide)
peptide: YCEENYLDPEQYQYYIYFK(COCH2)Y
modifications: thioether 2-19 (inferred)
B38: cyclic peptide SEQ ID NO: 260 (peptide)
peptide: YCEENYLDPEQYVYFIYFK(COCH2)Y
modifications: thioether 2-19 (inferred)
B39: cyclic peptide SEQ ID NO: 244 (peptide)
peptide: YCEENYLDPNQYQYFIYFK(COCH2)Y
modifications: thioether 2-19 (inferred)
B40: cyclic peptide SEQ ID NO: 251 (peptide)
peptide: YCEENYLDPEHYQYFIYFK(COCH2)Y
modifications: thioether 2-19 (inferred)
B41: cyclic peptide SEQ ID NO: 268 (peptide)
peptide: YCEENYLDPEQYEYFIYFK(COCH2)Y
modifications: thioether 2-19 (inferred)
B42: cyclic peptide SEQ ID NO: 252 (peptide)
peptide: YCEENYLDPEQLQYFIYFK(COCH2)Y
modifications: thioether 2-19 (inferred)

Bridge positions count the residues as written; N and C are the ends. Ends that are not written are not given here. COCH2 = acetyl group that carries the bridge Where only a bound is given, the exact number is not on record here.

T1 sequence (P21802 22-377, change not shown): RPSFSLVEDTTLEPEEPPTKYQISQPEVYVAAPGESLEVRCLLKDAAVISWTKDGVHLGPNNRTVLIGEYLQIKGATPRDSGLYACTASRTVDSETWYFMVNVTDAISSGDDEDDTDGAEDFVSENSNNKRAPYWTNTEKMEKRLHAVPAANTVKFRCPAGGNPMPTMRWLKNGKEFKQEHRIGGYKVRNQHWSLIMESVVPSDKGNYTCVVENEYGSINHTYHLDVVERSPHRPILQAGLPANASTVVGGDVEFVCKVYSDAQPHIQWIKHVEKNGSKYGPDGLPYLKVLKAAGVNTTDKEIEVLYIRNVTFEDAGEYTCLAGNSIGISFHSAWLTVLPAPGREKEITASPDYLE

This assay has as its target T1, Recombinant Human FGFR2 alpha (IIIc) Fc Chimera Protein, CF (R&D systems, 712-FR-050) (human, UniProt P21802 22-377).
T1 construct: bought; not shown: Fc part of the chimera
The assay can be described thus: ELISA on plate-bound FGFR2-Fc. An outline of the steps: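 Peptide binding scored by category from dose-response of background-corrected luminescence (FGFR-coated minus uncoated wells). Detection via anti-Myc antibody (2 h, room temperature) after 3 h peptide incubation on wells coated with 5 ng FGFR2 alpha (IIIc)-Fc.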
Turning to B1, the “ELISA luminescence signal at 10 nmol/L peptide, relative to SEQ ID NO: 47 (=1)” value was not below 0.7 ratio.

As for B2, the “ELISA luminescence signal at 10 nmol/L peptide, relative to SEQ ID NO: 47 (=1)” value is not below 0.7 ratio.

B3: the “ELISA luminescence signal at 10 nmol/L peptide, relative to SEQ ID NO: 47 (=1)” value was 0.1 to 0.5 ratio.

With B4, the “ELISA luminescence signal at 10 nmol/L peptide, relative to SEQ ID NO: 47 (=1)” value is not below 0.7 ratio.

As for B5, the “ELISA luminescence signal at 10 nmol/L peptide, relative to SEQ ID NO: 47 (=1)” value is not below 0.7 ratio.

B6: the “ELISA luminescence signal at 10 nmol/L peptide, relative to SEQ ID NO: 47 (=1)” value is not below 0.7 ratio.

As for B7, the “ELISA luminescence signal at 10 nmol/L peptide, relative to SEQ ID NO: 47 (=1)” value was not below 0.7 ratio.

Take B8: the “ELISA luminescence signal at 10 nmol/L peptide, relative to SEQ ID NO: 47 (=1)” value is not below 0.7 ratio.

As to B9, the “ELISA luminescence signal at 10 nmol/L peptide, relative to SEQ ID NO: 47 (=1)” value was in the range of 0.1 to 0.5 ratio.

B10: the “ELISA luminescence signal at 10 nmol/L peptide, relative to SEQ ID NO: 47 (=1)” value is not below 0.7 ratio.

Turning to B11, the “ELISA luminescence signal at 10 nmol/L peptide, relative to SEQ ID NO: 47 (=1)” value was not below 0.7 ratio.

Regarding B12, the “ELISA luminescence signal at 10 nmol/L peptide, relative to SEQ ID NO: 47 (=1)” value is not below 0.7 ratio.

Take B13: the “ELISA luminescence signal at 10 nmol/L peptide, relative to SEQ ID NO: 47 (=1)” value was not below 0.7 ratio.

Consider B14, for which the “ELISA luminescence signal at 10 nmol/L peptide, relative to SEQ ID NO: 47 (=1)” value was in the range of 0.1 to 0.5 ratio.

With B15, the “ELISA luminescence signal at 10 nmol/L peptide, relative to SEQ ID NO: 47 (=1)” value lay in the range of 0.5 to 0.7 ratio.

B16: the “ELISA luminescence signal at 10 nmol/L peptide, relative to SEQ ID NO: 47 (=1)” value was not below 0.7 ratio.

Turning to B17, the “ELISA luminescence signal at 10 nmol/L peptide, relative to SEQ ID NO: 47 (=1)” value was not below 0.7 ratio.

Turning to B18, the “ELISA luminescence signal at 10 nmol/L peptide, relative to SEQ ID NO: 47 (=1)” value was 0.1 to 0.5 ratio.

In the case of B19, the “ELISA luminescence signal at 10 nmol/L peptide, relative to SEQ ID NO: 47 (=1)” value is not below 0.7 ratio.

With B20, the “ELISA luminescence signal at 10 nmol/L peptide, relative to SEQ ID NO: 47 (=1)” value was not below 0.7 ratio.

With B21, the “ELISA luminescence signal at 10 nmol/L peptide, relative to SEQ ID NO: 47 (=1)” value was not below 0.7 ratio.

As to B22, the “ELISA luminescence signal at 10 nmol/L peptide, relative to SEQ ID NO: 47 (=1)” value is not below 0.7 ratio.

B23: the “ELISA luminescence signal at 10 nmol/L peptide, relative to SEQ ID NO: 47 (=1)” value is not below 0.7 ratio.

Consider B24, for which the “ELISA luminescence signal at 10 nmol/L peptide, relative to SEQ ID NO: 47 (=1)” value was not below 0.7 ratio.

On to B25, for which the “ELISA luminescence signal at 10 nmol/L peptide, relative to SEQ ID NO: 47 (=1)” value is not below 0.7 ratio.

As to B26, the “ELISA luminescence signal at 10 nmol/L peptide, relative to SEQ ID NO: 47 (=1)” value is not below 0.7 ratio.

Turning to B27, the “ELISA luminescence signal at 10 nmol/L peptide, relative to SEQ ID NO: 47 (=1)” value fell in the range of 0.1 to 0.5 ratio.

Turning to B28, the “ELISA luminescence signal at 10 nmol/L peptide, relative to SEQ ID NO: 47 (=1)” value is not below 0.7 ratio.

Consider B29, for which the “ELISA luminescence signal at 10 nmol/L peptide, relative to SEQ ID NO: 47 (=1)” value was not below 0.7 ratio.

Regarding B30, the “ELISA luminescence signal at 10 nmol/L peptide, relative to SEQ ID NO: 47 (=1)” value was not below 0.7 ratio.

Consider B31, for which the “ELISA luminescence signal at 10 nmol/L peptide, relative to SEQ ID NO: 47 (=1)” value was not below 0.7 ratio.

In the case of B32, the “ELISA luminescence signal at 10 nmol/L peptide, relative to SEQ ID NO: 47 (=1)” value is not below 0.7 ratio.

Turning to B33, the “ELISA luminescence signal at 10 nmol/L peptide, relative to SEQ ID NO: 47 (=1)” value was not below 0.7 ratio.

As to B34, the “ELISA luminescence signal at 10 nmol/L peptide, relative to SEQ ID NO: 47 (=1)” value is not below 0.7 ratio.

Take B35: the “ELISA luminescence signal at 10 nmol/L peptide, relative to SEQ ID NO: 47 (=1)” value is not below 0.7 ratio.

As for B36, the “ELISA luminescence signal at 10 nmol/L peptide, relative to SEQ ID NO: 47 (=1)” value is not below 0.7 ratio.

Turning to B37, the “ELISA luminescence signal at 10 nmol/L peptide, relative to SEQ ID NO: 47 (=1)” value lay within 0.5 to 0.7 ratio.

Consider B38, for which the “ELISA luminescence signal at 10 nmol/L peptide, relative to SEQ ID NO: 47 (=1)” value was not below 0.7 ratio.

Turning to B39, the “ELISA luminescence signal at 10 nmol/L peptide, relative to SEQ ID NO: 47 (=1)” value is not below 0.7 ratio.

As for B40, the “ELISA luminescence signal at 10 nmol/L peptide, relative to SEQ ID NO: 47 (=1)” value was in the range of 0.1 to 0.5 ratio.

For the molecule B41, the “ELISA luminescence signal at 10 nmol/L peptide, relative to SEQ ID NO: 47 (=1)” value is not below 0.7 ratio.

Consider B42, for which the “ELISA luminescence signal at 10 nmol/L peptide, relative to SEQ ID NO: 47 (=1)” value was 0.1 to 0.5 ratio.
